Source: the supplement of paper PMC10065799, “High-throughput profiling of sequence recognition by tyrosine kinases and SH2 domains using bacterial peptide display” (eLife, 2023)

Tests used:
SHP2-C SH2 = experiment: SH2 binding enrichment of the phosphorylated peptide, bacterial display (enrichment ratio); higher = better substrate or ligand; peptides without Tyr show the background
c-Src SH2 = experiment: as above
Grb2 SH2 = Grb2 SH2 (UniProt P62993); experiment: as above
FGFR1 = FGFR1 (UniProt P11362); experiment: phosphorylation enrichment, bacterial display (enrichment ratio); higher = better substrate or ligand; peptides without Tyr show the background
c-Abl (mouse) = experiment: as above
Fyn = Fyn (UniProt P06241); experiment: as above
Sequence of Fyn (P06241 whole entry, looked up): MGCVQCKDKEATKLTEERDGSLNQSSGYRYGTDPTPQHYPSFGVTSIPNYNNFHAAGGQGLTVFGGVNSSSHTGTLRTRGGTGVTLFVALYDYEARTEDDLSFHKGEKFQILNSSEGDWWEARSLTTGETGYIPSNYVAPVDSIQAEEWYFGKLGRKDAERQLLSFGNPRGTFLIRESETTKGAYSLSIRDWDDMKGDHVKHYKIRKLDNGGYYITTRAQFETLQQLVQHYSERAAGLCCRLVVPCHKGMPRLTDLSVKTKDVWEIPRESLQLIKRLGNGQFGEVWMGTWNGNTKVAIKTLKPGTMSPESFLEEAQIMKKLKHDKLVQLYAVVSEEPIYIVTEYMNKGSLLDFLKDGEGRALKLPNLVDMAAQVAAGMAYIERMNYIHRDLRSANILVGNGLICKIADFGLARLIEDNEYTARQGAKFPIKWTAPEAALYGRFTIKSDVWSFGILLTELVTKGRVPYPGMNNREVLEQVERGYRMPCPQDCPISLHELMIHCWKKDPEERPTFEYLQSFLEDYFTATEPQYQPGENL

MERTK = MERTK (UniProt Q12866); experiment: as above
Sequence of MERTK (Q12866 whole entry, looked up): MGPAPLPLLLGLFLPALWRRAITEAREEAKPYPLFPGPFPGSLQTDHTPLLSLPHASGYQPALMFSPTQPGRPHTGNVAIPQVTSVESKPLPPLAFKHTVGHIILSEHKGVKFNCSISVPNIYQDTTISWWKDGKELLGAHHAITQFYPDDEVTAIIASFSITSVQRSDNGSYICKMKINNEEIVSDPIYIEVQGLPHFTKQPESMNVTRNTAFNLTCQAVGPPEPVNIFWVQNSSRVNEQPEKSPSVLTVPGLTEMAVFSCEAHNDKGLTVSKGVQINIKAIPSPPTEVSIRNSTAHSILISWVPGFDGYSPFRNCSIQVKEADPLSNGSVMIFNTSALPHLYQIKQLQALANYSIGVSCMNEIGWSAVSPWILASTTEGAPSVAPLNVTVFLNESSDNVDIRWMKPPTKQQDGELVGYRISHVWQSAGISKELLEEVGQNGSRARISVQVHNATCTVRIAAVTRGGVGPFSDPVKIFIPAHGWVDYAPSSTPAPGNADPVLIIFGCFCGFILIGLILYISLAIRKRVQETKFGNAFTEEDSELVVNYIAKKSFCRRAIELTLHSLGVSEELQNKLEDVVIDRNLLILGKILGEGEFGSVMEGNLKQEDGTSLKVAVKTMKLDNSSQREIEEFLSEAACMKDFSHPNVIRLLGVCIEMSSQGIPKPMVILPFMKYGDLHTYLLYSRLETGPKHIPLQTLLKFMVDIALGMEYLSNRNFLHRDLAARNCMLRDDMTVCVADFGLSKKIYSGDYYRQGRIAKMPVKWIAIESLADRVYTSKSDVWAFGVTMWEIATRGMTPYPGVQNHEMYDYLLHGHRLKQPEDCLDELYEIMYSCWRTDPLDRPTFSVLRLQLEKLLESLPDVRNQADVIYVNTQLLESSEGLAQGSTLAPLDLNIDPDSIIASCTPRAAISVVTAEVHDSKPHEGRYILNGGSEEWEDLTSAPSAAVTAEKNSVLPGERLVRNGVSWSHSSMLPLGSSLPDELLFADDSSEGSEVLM

Fer (mouse) = experiment: as above
Fes = Fes (UniProt P07332); experiment: as above
Sequence of Fes (P07332 whole entry, looked up): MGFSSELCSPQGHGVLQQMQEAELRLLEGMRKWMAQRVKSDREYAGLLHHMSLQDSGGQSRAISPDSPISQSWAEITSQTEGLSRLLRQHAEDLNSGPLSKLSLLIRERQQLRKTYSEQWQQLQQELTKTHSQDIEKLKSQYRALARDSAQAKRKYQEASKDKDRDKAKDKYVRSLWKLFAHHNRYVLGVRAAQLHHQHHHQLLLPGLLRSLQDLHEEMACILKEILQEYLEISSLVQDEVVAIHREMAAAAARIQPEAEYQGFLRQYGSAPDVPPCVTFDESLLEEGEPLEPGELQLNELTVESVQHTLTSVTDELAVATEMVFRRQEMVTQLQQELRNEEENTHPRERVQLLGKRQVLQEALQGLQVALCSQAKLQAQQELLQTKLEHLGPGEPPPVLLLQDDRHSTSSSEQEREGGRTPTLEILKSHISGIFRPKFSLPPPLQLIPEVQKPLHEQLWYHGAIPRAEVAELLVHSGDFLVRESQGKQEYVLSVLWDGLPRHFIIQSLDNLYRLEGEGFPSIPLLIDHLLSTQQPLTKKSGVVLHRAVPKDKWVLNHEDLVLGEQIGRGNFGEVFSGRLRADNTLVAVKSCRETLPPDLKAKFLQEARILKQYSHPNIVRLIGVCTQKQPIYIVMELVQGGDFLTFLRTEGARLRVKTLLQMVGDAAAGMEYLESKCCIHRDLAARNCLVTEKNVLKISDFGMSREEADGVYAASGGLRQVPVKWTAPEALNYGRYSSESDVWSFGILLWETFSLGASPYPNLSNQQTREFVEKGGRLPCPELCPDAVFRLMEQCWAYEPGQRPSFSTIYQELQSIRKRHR

Hck = Hck (UniProt P08631); experiment: as above
AncSZ = experiment: as above
Jak2 = Jak2 (UniProt O60674); experiment: as above
EPHB1 = EPHB1 (UniProt P54762); experiment: as above
Sequence of EPHB1 (P54762 whole entry, looked up): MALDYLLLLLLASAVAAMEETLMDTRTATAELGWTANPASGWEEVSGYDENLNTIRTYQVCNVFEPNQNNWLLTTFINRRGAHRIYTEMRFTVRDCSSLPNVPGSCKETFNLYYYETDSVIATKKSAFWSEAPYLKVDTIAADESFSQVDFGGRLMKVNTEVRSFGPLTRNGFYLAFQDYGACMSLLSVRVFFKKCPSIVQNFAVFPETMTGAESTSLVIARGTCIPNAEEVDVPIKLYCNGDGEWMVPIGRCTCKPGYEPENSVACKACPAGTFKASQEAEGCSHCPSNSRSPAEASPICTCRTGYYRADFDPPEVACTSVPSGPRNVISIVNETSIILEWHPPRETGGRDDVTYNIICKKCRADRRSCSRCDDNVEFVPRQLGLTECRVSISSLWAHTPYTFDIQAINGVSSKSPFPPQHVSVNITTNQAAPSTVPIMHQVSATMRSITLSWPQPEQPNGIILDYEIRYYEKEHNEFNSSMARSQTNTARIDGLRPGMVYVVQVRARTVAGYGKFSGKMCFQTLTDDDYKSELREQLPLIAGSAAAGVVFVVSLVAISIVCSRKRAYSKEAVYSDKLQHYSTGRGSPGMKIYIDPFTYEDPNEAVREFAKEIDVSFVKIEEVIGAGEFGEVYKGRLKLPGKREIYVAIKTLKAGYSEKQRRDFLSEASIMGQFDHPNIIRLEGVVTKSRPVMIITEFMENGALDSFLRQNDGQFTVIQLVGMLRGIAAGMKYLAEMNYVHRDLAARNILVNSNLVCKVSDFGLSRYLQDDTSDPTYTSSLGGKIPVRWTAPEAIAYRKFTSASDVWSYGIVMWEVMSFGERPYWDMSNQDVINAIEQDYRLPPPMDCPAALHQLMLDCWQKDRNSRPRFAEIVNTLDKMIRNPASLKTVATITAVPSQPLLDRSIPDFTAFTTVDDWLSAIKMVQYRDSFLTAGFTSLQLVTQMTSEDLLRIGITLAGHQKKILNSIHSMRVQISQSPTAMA

c-Src = experiment: as above
FGFR3 = FGFR3 (UniProt P22607); experiment: as above
EPHB2 = EPHB2 (UniProt P29323); experiment: as above
Sequence of EPHB2 (P29323 whole entry, looked up, the tested form may be a part): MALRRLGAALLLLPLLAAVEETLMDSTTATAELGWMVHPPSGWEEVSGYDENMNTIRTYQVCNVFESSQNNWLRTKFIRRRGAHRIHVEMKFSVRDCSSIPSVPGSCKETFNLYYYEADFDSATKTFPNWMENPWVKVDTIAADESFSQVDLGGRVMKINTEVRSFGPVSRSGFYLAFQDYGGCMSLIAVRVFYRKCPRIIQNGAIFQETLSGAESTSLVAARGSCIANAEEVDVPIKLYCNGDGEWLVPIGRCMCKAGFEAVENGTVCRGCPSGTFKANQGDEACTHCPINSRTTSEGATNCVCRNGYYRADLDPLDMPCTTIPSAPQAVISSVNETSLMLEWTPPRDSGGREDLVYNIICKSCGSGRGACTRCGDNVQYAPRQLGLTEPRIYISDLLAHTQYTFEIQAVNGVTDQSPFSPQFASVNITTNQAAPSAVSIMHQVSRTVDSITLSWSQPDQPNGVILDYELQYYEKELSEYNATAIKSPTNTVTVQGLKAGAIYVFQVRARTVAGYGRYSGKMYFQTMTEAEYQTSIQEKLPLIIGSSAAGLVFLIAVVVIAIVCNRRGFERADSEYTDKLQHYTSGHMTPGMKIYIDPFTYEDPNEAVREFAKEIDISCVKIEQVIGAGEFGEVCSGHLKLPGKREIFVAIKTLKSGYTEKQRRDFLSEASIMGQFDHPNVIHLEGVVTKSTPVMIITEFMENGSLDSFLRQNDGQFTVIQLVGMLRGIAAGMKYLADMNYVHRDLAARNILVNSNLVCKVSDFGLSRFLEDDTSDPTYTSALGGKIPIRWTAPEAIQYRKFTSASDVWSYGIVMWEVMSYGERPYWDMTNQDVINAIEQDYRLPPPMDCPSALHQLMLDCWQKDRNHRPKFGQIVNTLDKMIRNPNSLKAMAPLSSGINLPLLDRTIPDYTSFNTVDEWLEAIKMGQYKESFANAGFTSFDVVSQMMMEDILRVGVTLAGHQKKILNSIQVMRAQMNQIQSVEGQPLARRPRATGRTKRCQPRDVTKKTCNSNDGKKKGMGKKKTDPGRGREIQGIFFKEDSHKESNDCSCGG
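For SH2 binding enrichment of the phosphorylated peptide, bacterial display in this document: peptide library displayed on the E. coli surface as eCPX fusions, selected cells deep-sequenced, score is each peptide's frequency after selection divided by its frequency in the input.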
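For phosphorylation enrichment, bacterial display in this document: 11-residue human phosphosite peptides and single-mutation variants displayed on the E. coli surface, counted by deep sequencing, each peptide's frequency after selection divided by its frequency in the unselected input library; frequency after pTyr selection over input frequency; kinase dosed for 20-30% of maximal phosphorylation in three min.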

Sequence of Grb2 SH2 (P62993 whole entry, looked up): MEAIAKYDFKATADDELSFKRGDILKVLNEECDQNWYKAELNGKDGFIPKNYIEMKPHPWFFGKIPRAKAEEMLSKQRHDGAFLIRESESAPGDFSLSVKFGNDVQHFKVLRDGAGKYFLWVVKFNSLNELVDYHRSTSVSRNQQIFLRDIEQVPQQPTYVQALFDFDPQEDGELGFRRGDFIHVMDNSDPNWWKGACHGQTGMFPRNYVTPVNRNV

Sequence	SH2 binding enrichment (SHP2-C SH2)	SH2 binding enrichment (c-Src SH2)	SH2 binding enrichment (Grb2 SH2)	phosphorylation enrichment (FGFR1)	phosphorylation enrichment (c-Abl (mouse))	phosphorylation enrichment (Fyn)	phosphorylation enrichment (MERTK)	phosphorylation enrichment (Fer (mouse))	phosphorylation enrichment (Fes)	phosphorylation enrichment (Hck)	phosphorylation enrichment (AncSZ)	phosphorylation enrichment (Jak2)	phosphorylation enrichment (EPHB1)	phosphorylation enrichment (c-Src)	phosphorylation enrichment (FGFR3)	phosphorylation enrichment (EPHB2)
QRASDYYSQQM [GBP6_Y333_A331S]	0.403	0.39	0.928	1.36	0.486	0.574	0.558	0.453	0.754	0.788	0.825	0.805	0.66	0.58	1.22	0.589
EKEQNYDLTQV [ECD_Y448_E452Q]	0.508	0.486	0.79	0.612	1.42	0.557	0.569	1.17	1.33	0.528	1.24	1.07	0.513	0.506	0.782	0.612
MRAIIYNSSTA [PLEKHA7_Y243_L241I]	0.665	0.456	0.679	0.554	1.04	0.509	0.47	0.528	0.838	0.501	0.812	0.765	0.473	0.447	0.623	0.609
LNCIYYKDQTG [RS1_Y166_W163C]	0.743	0.551	0.867	2.69	1.08	2.93	1.78	1.55	3.26	4.01	3.56	1.42	3.64	1.4	4.51	1.15
TLQVMYGCDVG [HLA-B_Y123_S121V]	0.883	0.515	0.941	0.596	0.849	0.508	0.56	0.509	1.23	0.593	1.1	1.1	0.564	0.589	0.862	0.56
PMFTKYGNGLL [RPGRIP1L_Y196_S199G]	0.474	0.421	0.724	0.496	1.31	0.494	0.518	0.71	1.1	0.534	1.28	1.09	0.762	0.79	0.668	0.525
AFEQQYSPIPR [NOX1_Y373]	0.724	0.508	0.772	1.07	0.701	0.624	1.25	0.451	0.707	4.92	0.767	0.583	0.404	0.989	0.769	0.512
RCYVYYYSYLL [PTEN_Y177_R173C]	0.51	0.407	0.668	1.35	1.71	0.787	1.01	0.86	2	1.08	1.42	2.13	0.82	1.36	1.64	0.936
IKAGAYDFPSP [CAMK2A_Y230]	0.687	4.16	1.03	0.397	0.551	0.747	4.85	1.43	0.708	0.419	0.811	0.548	0.362	0.485	0.462	0.416
KENITYMKSEQ [L1TD1_Y24_R27S]	0.629	0.53	1.01	0.456	0.503	0.358	0.39	0.32	0.767	0.457	0.806	0.585	0.411	0.425	0.524	0.426
HEKKVYSFCGT [RPS6KA3_Y226_A225V]	0.598	0.747	0.91	0.74	0.838	0.58	0.881	0.431	1.03	0.645	0.991	0.692	0.736	0.742	0.842	0.68
TENAGYFFRIS	0.593	0.432	0.753	0.511	0.925	0.511	0.388	0.487	1.42	0.548	1.52	1.46	0.733	0.514	0.868	0.703
LLANAYIYVVQ [L1CAM_Y418]	0.787	0.484	0.9	0.679	0.983	0.645	0.516	0.588	1.52	0.687	1.29	1.43	0.847	0.602	1.01	0.69
GMSQAYSFSQR [DES_Y5_S7F]	0.747	0.476	0.818	0.392	0.454	0.389	0.721	0.338	0.755	0.379	0.761	0.551	0.317	0.495	0.481	0.453
AFGTVYKGLWI [EGFR_Y727]	1.3	0.628	0.857	0.517	0.724	0.593	0.39	0.511	1.13	0.525	1.2	1.16	0.532	0.619	0.755	0.587
IHHIDYYKETT [FGFR1_Y653_K656E]	0.635	1.08	0.808	0.76	0.442	0.549	0.491	0.396	1.05	0.471	0.694	0.513	0.594	0.409	0.891	0.653
